Data published in patent US20050080013A1 (Pfizer, published 2005).
Non-standard residues stand in square brackets, D forms with d. No end group written: not given here. *: point of attachment. Nal = naphthylalanine (isomer not specified); Dansyl = CN(C)c1cccc2c(S(=O)(=O)*)cccc12; Aib = CC(C)(N)C(=O)O

T1: lecithin:cholesterol acyltransferase (LCAT), purified from human plasma (human, UniProt P04180 25-440)
T1 sequence (looked up): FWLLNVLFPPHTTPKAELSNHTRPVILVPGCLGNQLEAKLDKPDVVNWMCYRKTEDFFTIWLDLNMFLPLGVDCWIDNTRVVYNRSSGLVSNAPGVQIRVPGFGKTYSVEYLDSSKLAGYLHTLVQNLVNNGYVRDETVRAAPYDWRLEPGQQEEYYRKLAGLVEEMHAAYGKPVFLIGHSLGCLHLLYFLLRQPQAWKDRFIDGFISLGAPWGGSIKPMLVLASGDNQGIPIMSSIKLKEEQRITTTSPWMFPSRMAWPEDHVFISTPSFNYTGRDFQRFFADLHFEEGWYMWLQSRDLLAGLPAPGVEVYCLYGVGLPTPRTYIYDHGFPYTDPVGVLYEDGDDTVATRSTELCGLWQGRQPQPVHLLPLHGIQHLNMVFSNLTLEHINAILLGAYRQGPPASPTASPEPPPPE

B1: peptide 240 (peptide)
peptide: Ac-DWLKAFYDKVAEKLKEAF-NH2
B2: peptide 26 (peptide)
peptide: PVLDLFRELLNELLELLKQKLK
B3: peptide 31 (peptide)
peptide: PVLDLFLELLNE[Aib]LEALKQKLK
B4: peptide 225 (peptide)
peptide: PVLDAFRELAEALAQLKK
B5: peptide 29 (peptide)
peptide: AVLDLFRELLNELLEALKQKLK
B6: peptide 24 (peptide)
peptide: PVLDLFRELLNELLEALQKKLK
B7: peptide 27 (peptide)
peptide: PVLDLFRELLNEL[Nal]EALKQKLK
modifications: not fully specified
B8: peptide 246 (peptide)
peptide: EWLEAFYKKVLEKLKELF
B9: peptide 237 (peptide)
peptide: LDDLLQKWAEAFNQLLKK
B10: peptide 226 (peptide)
peptide: PVLDAFRELGEALLQLKK
B11: peptide 222 (peptide)
peptide: PVLDAFRELLEALLQLKK
B12: peptide 4 (peptide)
peptide: PVLDLFRELLNELLEALKQKLK
B13: peptide 35 (peptide)
peptide: PVLDWFRELLNELLEALKQKLK
B14: peptide 22 (peptide)
peptide: PVLDLFRELLNELLEGLKQKLK
B15: peptide 47 (peptide)
peptide: VLDLFRELLNEGLEALKQKLK
B16: peptide 239 (peptide)
peptide: Ac-EWLEAFYKKVLEKLKELF-NH2
B17: peptide 223 (peptide)
peptide: PVLDAFRELLEALAQLKK
B18: peptide 34 (peptide)
peptide: PVLD[Nal]FRELLNELLEALKQKLK
modifications: not fully specified
B19: peptide 49 (peptide)
peptide: PVLDLFRNLLEKLLEALEQKLK
B20: peptide 238 (peptide)
peptide: Ac-EWLKAFYEKVLEKLKELF-NH2
B21: peptide 25 (peptide)
peptide: PVLDFFRELLNE[Aib]LEALKQKLK
B22: peptide 243 (peptide)
peptide: DWFKAFYDKVAEKFKEAF
B23: peptide 42 (peptide)
peptide: PVLDEFREKLNE[Aib]WEALKQKLK
B24: peptide 244 (peptide)
peptide: DWLKAFYDKVAEKLKEAF
B25: peptide 28 (peptide)
peptide: PVLDLFRELLNELWEALKQKLK
B26: peptide 33 (peptide)
peptide: PVLDLFREKLNELLEALKQKLK
B27: peptide 43 (peptide)
peptide: PVLDEFREKLWE[Aib]LEALKQKLK
B28: peptide 23 (peptide)
peptide: PLLELFKELLQELLEALKQKLK
B29: peptide 20 (peptide)
peptide: PVLDLFREGLNELLEALKQKLK
B30: peptide 32 (peptide)
peptide: [Aib]VLDLFRELLNELLEALKQKLK
B31: peptide 46 (peptide)
peptide: PVLDLFREKLNE[Aib]LEALKQKLK
B32: peptide 50 (peptide)
peptide: PVLDLFRELLWE[Aib]LEALKQKLK
B33: peptide 38 (peptide)
peptide: PVLDLFRELLNE[Aib]LEAWKQKLK
B34: peptide 40 (peptide)
peptide: PVLDLFNELLRELLEALQKKLK
B35: peptide 45 (peptide)
peptide: PVLDEFREKLNE[Aib]LEALKQKLK
B36: peptide 227 (peptide)
peptide: Ac-PVLDLFRELGEELKQKLK-NH2
B37: peptide 220 (peptide)
peptide: PVLDLFRELLEELQKKLK
B38: peptide 48 (peptide)
peptide: XXLDLFRELLNELLEALKQKLK
modifications: D-Pro (p) at 1, D-Val (v) at 2
B39: peptide 41 (peptide)
peptide: PVLDLWRELLNE[Aib]LEALKQKLK
B40: peptide 36 (peptide)
peptide: PLLELLKELLQELLEALKQKLK
B41: peptide 245 (peptide)
peptide: DWLKAFYDKVFEKFKEFF
B42: peptide 242 (peptide)
peptide: GIKKFLGSIWKFIKAFVG
B43: peptide 39 (peptide)
peptide: PVLDLFRELLEELLKALKKKLK
B44: peptide 228 (peptide)
peptide: Ac-PVLDLFREGLEELKQKLK-NH2
B45: peptide 3 (peptide)
peptide: PVLDLFRELLNELLEWLKQKLK
B46: peptide 241 (peptide)
peptide: DWFKAFYDKVFEKFKEFF
B47: peptide 21 (peptide)
peptide: XVLDLFRELLNELLEALKQKLK
modifications: D-Pro (p) at 1
B48: peptide 224 (peptide)
peptide: PVLDLFREGWEELKQKLK
B49: peptide 2 (peptide)
peptide: GVLDLFRELLNELLEALKQKLKK
B50: peptide 37 (peptide)
peptide: PVLDLFREWLNELLEALKQKLK
B51: peptide 30 (peptide)
peptide: Dansyl-PVLDLFRELLNELLEALKQKLK
B52: peptide 44 (peptide)
peptide: [dP][dV][dL][dD][dE][dF][dR][dE][dK][dL][dN][dE][Aib][dL][dE][dA][dL][dK][dQ][dK][dL][dK]
B53: peptide 221 (peptide)
peptide: Ac-DVLDLFRELLEELKQKLK-NH2
B54: peptide 5 (peptide)
peptide: XVLDLFRELLNELLEALKQKLKK
modifications: D-Pro (p) at 1
B55: peptide 247 (peptide)
peptide: DWFKAFYDKFFEKFKEFF
B56: peptide 229 (peptide)
peptide: Ac-PVLDLFRELLEEGKQKLK-NH2

The binders below were run against T1, lecithin:cholesterol acyltransferase … (assay: cell-based or functional assay).

Compared with B1, B2 is higher in “ACTIVITY (%) LCAT” value: 10% for the first, 47% for the second.

Going from B3 to B4, the “ACTIVITY (%) LCAT” value falls from 34% to 1%.

First: B5
Second: B6
The “ACTIVITY (%) LCAT” value of the first is lower: 39% for the first, 53% for the second.

Compared with B7, B8 is lower in “ACTIVITY (%) LCAT” value: 44% for the first, 4% for the second.

Compared with B9, B10 is lower in “ACTIVITY (%) LCAT” value: 11% for the first, 1% for the second.

Compared with B11, B12 is higher in “ACTIVITY (%) LCAT” value: 8% for the first, 93% for the second.

First: B13
Second: B14
The “ACTIVITY (%) LCAT” value of the first is lower: 31% for the first, 54% for the second.

Compared with B15, B16 is lower in “ACTIVITY (%) LCAT” value: 23% for the first, 11% for the second.

Going from B17 to B18, the “ACTIVITY (%) LCAT” value rises from 8% to 32%.

First: B19
Second: B20
The “ACTIVITY (%) LCAT” value of the first is higher: 22% for the first, 19% for the second.

Going from B21 to B22, the “ACTIVITY (%) LCAT” value falls from 51% to 5%.

First: B23
Second: B24
The “ACTIVITY (%) LCAT” value of the first is higher: 25% for the first, 5% for the second.

Going from B25 to B26, the “ACTIVITY (%) LCAT” value falls from 40% to 33%.

Going from B27 to B28, the “ACTIVITY (%) LCAT” value rises from 25% to 54%.

Going from B29 to B30, the “ACTIVITY (%) LCAT” value falls from 57% to 33%.

Compared with B31, B32 is lower in “ACTIVITY (%) LCAT” value: 23% for the first, 21% for the second.

Going from B33 to B34, the “ACTIVITY (%) LCAT” value falls from 29% to 25%.

Going from B35 to B36, the “ACTIVITY (%) LCAT” value falls from 24% to 0%.

B37 and B38 are the same in “ACTIVITY (%) LCAT” value: 22% for the first, 22% for the second.

First: B39
Second: B40
The “ACTIVITY (%) LCAT” value of the first is lower: 25% for the first, 31% for the second.

Going from B41 to B42, the “ACTIVITY (%) LCAT” value rises from 4% to 7%.

Compared with B43, B44 is lower in “ACTIVITY (%) LCAT” value: 25% for the first, 0% for the second.

First: B45
Second: B46
The “ACTIVITY (%) LCAT” value of the first is higher: 98% for the first, 8% for the second.

Going from B47 to B48, the “ACTIVITY (%) LCAT” value falls from 57% to 8%.

First: B49
Second: B50
The “ACTIVITY (%) LCAT” value of the first is higher: 105% for the first, 29% for the second.

Going from B51 to B52, the “ACTIVITY (%) LCAT” value falls from 38% to 25%.

Going from B53 to B54, the “ACTIVITY (%) LCAT” value rises from 12% to 90%.

First: B55
Second: B56
The “ACTIVITY (%) LCAT” value of the first is higher: 3% for the first, 0% for the second.
